According to the RNAGym collection of RNA variant scans (doi:10.1093/molbev/msab373):

B1: Azoarcus group I ribozyme (parent)
chain: GUGCCUUGCGCCGGGAAACCACGCAAGGGAUGGUGUCAAAUUCGGCGAAACCUAAGCGCCCGCCCGGGCGUAUGGCAACGCCGAGCCAAGCUUCGGCGCCUGCGCCGAUGAAGGUGUAGAGACUAGACGGCACCCACCUAAGGCAAACGCUAUGGUGAAGGCAUAGUCCAGGGAGUGGCGAAAGUCACACAAACCGG

Variants of: B1
Assay: reverse-splicing fitness (ratio to wild type); higher = more active; in vitro selection; Mg2+ level not given
Summary of the method: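 An in vitro group I ribozyme library with randomized positions was T7-transcribed and gel-purified. In triplicate, 10 pmol RNA in EPPS pH 7.5 was reacted with 50 pmoles of a 30-nt RNA substrate for 1 h at 37 °C across several added MgCl2 levels (1–48 mM), then stopped with EDTA. Products were reverse transcribed from a substrate-complementary primer, PCR-amplified and sequenced (HiSeq 4000). Fitness is a variant's read proportion after selection over that before, normalised to wild type.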

| Variant | reverse-splicing fitness |
| --- | --- |
| C82U A111U A120G A145U C150U U176G | 0.00443 |
| C82U A111U A120G A145U C150U U176A | 0.00953 |
| C82U A111U A120G A145U C150U U176C | 0.013 |
| C82U A111U A120G A145G C169G U176C | 0.027 |
| C82U A111U A120G A145G C169G U176G | 0.00377 |
| C82U A111U A120G A145G C169G U176A | 0.0214 |
| C82U A111U A120U A145C C150A | 0.00466 |
| C82U A111U A120G A145U C150G C169A | 0.00759 |
| C82U A111U A120G A145U C150G C169U | 0.00779 |
| C82U A111U A120G A145U C150G C169G | 0.00671 |
| C82U A111U A120G A145G C150U C169A U176C | 0.0123 |
| C82U A111U A120G A145G C150U C169A U176G | 0.00525 |
| C82U A111U A120G A145U C150U C169A | 0.00897 |
| C82U A111U A120G A145U C150U C169U | 0.00788 |
| C82U A111U A120G A145U C150U C169G | 0.00885 |
| C82U A111U A120G C150A C169U U176A | 0.0209 |
| C82U A111U A120G C150A C169U U176G | 0.00726 |
| C82U A111U A120G C150A C169U U176C | 0.0171 |
| C82U A111U A120G A145U C150G U176C | 0.00777 |
| C82U A111U A120G A145U C150G U176A | 0.00538 |
| C82U A111U A120G A145U C150G U176G | 0.00302 |

| Variant | reverse-splicing fitness |
| --- | --- |
| C82U A111U A120G C150U U176G | 0.00537 |
| C82U A111U A120G C150U U176C | 0.0136 |
| C82U A111U A120G C150U U176A | 0.0102 |
| C82U A111U A120G A145U C150U C169G U176C | 0.0134 |
| C82U A111U A120G A145U C150U C169G U176G | 0.00463 |
| C82U A111U A120G A145U C150U C169G U176A | 0.0119 |
| C82U A111U A120G A145U C169A U176A | 0.0113 |
| C82U A111U A120G A145U C169A U176C | 0.0101 |
| C82U A111U A120G A145U C169A U176G | 0.00391 |
| C82U A111U A120G A145U C150A U176C | 0.0112 |
| C82U A111U A120G A145U C150A U176G | 0.00425 |
| C82U A111U A120G A145U C150A U176A | 0.0096 |
| C82U A111U A120G C150A U176C | 0.0164 |
| C82U A111U A120G C150A U176G | 0.00633 |
| C82U A111U A120G C150A U176A | 0.0114 |
| C82U A111U A120G A145G C150U C169G | 0.00964 |
| C82U A111U A120G A145G C150U C169U | 0.0104 |
| C82U A111U A120G C150G | 0.00696 |
| C82U A111U A120G C150U | 0.0114 |
| C82U A111U A120G C150A | 0.00947 |
